Laboratory results reported in PMC5650148, “Ssn6-Tup1 global transcriptional co-repressor: Role of the N-terminal glutamine-rich region of Ssn6” (PLoS ONE, 2017).

B1: Tup1 N72, the Ssn6-interaction and Tup1 oligomerization domain (domain or fragment, yeast, UniProt P16649 1-72, looked up)
chain: MTASVSNTQNKLNELLDAIRQEFLQVSQEANTYRLQNQKDYDFKMNQQLAEMQQIRNTVYELELTHRKMKDA
notes: One molecule stands for both two-hybrid forms: LexA-Tup1 N72 as bait and Tup1 N72-Vp16 as prey; also called LexA-Tup1 N72; Tup1 N72-Vp16; source: yeast two-hybrid fusion (LexA hybrid from YCp91; Vp16 hybrid from YEp92)
B2: Ssn6 Δ29 (amino acids 30 to 180) (domain or fragment, yeast, UniProt P14922 30-180, looked up)
chain: QAAVPQQPLDPLTQSTAETWLSIASLAETLGDGDRAAMAYDATLQFNPSSAKALTSLAHLYRSRDMFQRAAELYERALLVNPELSDVWATLGHCYLMLDDLQRAYNAYQQALYHLSNPNVPKLWHGIGILYDRYGSLDYAEEAFAKVLELD
notes: Ssn6 (also known as Cyc8), yeast, amino acids 30 to 180; lacks residues 1-29 of the NTpolyQ tail and contains three intact TPRs; also called Ssn6 Δ29-Gal4; LexA-Ssn6 Δ29; source: yeast two-hybrid fusion (clone isolated from a Gal4pAD yeast genomic library, pACTII)
B3: Ssn6 Sc3T (N175), the 175 amino-terminal residues of Ssn6 (domain or fragment, yeast, UniProt P14922 1-175, looked up)
chain: MNPGGEQTIMEQPAQQQQQQQQQQQQQQQQAAVPQQPLDPLTQSTAETWLSIASLAETLGDGDRAAMAYDATLQFNPSSAKALTSLAHLYRSRDMFQRAAELYERALLVNPELSDVWATLGHCYLMLDDLQRAYNAYQQALYHLSNPNVPKLWHGIGILYDRYGSLDYAEEAFAK
notes: Ssn6 (also known as Cyc8), yeast, the 175 amino-terminal residues: NTpolyQ tail and TPRs 1 to 3; One molecule stands for both two-hybrid forms of the same fragment: LexA-Sc3T as bait and Sc3T-Vp16 as prey; A chain carries either LexA or Vp16, never both; The LexA form was also used in the repression assay; also called LexA-Ssn6 Sc3T; LexA-Sc3T (N175); source: yeast two-hybrid fusion (LexA hybrid …)
B4: Ssn6 Δ45 (amino acids 46-181), Vp16 activation hybrid (domain or fragment, yeast, UniProt P14922 46-181, looked up)
chain: AETWLSIASLAETLGDGDRAAMAYDATLQFNPSSAKALTSLAHLYRSRDMFQRAAELYERALLVNPELSDVWATLGHCYLMLDDLQRAYNAYQQALYHLSNPNVPKLWHGIGILYDRYGSLDYAEEAFAKVLELDP
notes: Ssn6 (also known as Cyc8), yeast, amino acids 46-181; lacks the entire NTpolyQ tail (1-45); the four N-terminal TPRs; also called Ssn6 Δ45-Vp16; Ssn6 Δ45-Vp1; source: yeast two-hybrid fusion (YEp92)
B5: Ssn6 Δ45 (amino acids 46-181), purified recombinant fragment (domain or fragment, yeast, UniProt P14922 46-181, looked up)
chain: B4 chain
notes: Ssn6 (also known as Cyc8), yeast, amino acids 46-181; the four N-terminal TPRs, without the NTpolyQ tail; Cloned in pGEX-2T; GST was removed with thrombin on the column; also called GST-Δ45; source: E. coli BL21(DE3), purified (Glutathione Sepharose 4B, thrombin digestion, Biogel P100 gel filtration)

Legend:
[1] = molecular target: B3; experiment: two-hybrid; LexA hybrids as DNA-binding baits, Vp16 or Gal4 activation domain hybrids as preys; wild-type yeast strain; lacZ reporter JK103 with four LexA operators upstream of the GAL1 TATA element; beta-galactosidase activity in Miller units, average of at least three transformants; settings: partners not purified
[2] = molecular target: the molecule itself; experiment: as above
[3] = molecular target: B1; experiment: cell-based or functional assay
[4] = molecular target: B1; experiment: two-hybrid; LexA hybrids as DNA-binding baits, Vp16 or Gal4 activation domain hybrids as preys; wild-type yeast strain; lacZ reporter JK103 with four LexA operators upstream of the GAL1 TATA element; beta-galactosidase activity in Miller units, average of at least three transformants; settings: partners not purified
[5] = molecular target: the molecule itself; experiment: SEC; Biogel P100 gel filtration in 20 mM phosphate buffer pH 8.0, 300 mM NaCl, 1 mM DTT; calibrated with protein standards; self-association of the fragment

## B1
[1]
  beta-galactosidase activity: 51 Miller units
[2]
  beta-galactosidase activity: 56 Miller units

## B2
[1]
  beta-galactosidase activity: 93 Miller units
[3]
  fold repression of the 4Lop-CYC1 lacZ reporter by LexA-Ssn6 Δ29 in the wild-type strain (endogenous Tup1): 1 fold

## B3
[4]
  beta-galactosidase activity: 80 Miller units
[3]
  fold repression of the 4Lop-CYC1 lacZ reporter by LexA-Ssn6 Sc3T in the wild-type strain (endogenous Tup1): 12 fold

## B4
[1]
  beta-galactosidase activity: 122 Miller units
[3]
  fold repression of the 4Lop-CYC1 lacZ reporter by LexA-Ssn6 Δ45 in the wild-type strain (endogenous Tup1): 1 fold

## B5
[5]
  stoichiometry N: ~3
